T1: human ITGA11 expressed in mouse C2C12 cells (human, UniProt Q9UKX5 23-1188)
T1 construct: whole, on cells; also called integrin α11; C2C12 cells expressing human ITGA11
T1 sequence (looked up): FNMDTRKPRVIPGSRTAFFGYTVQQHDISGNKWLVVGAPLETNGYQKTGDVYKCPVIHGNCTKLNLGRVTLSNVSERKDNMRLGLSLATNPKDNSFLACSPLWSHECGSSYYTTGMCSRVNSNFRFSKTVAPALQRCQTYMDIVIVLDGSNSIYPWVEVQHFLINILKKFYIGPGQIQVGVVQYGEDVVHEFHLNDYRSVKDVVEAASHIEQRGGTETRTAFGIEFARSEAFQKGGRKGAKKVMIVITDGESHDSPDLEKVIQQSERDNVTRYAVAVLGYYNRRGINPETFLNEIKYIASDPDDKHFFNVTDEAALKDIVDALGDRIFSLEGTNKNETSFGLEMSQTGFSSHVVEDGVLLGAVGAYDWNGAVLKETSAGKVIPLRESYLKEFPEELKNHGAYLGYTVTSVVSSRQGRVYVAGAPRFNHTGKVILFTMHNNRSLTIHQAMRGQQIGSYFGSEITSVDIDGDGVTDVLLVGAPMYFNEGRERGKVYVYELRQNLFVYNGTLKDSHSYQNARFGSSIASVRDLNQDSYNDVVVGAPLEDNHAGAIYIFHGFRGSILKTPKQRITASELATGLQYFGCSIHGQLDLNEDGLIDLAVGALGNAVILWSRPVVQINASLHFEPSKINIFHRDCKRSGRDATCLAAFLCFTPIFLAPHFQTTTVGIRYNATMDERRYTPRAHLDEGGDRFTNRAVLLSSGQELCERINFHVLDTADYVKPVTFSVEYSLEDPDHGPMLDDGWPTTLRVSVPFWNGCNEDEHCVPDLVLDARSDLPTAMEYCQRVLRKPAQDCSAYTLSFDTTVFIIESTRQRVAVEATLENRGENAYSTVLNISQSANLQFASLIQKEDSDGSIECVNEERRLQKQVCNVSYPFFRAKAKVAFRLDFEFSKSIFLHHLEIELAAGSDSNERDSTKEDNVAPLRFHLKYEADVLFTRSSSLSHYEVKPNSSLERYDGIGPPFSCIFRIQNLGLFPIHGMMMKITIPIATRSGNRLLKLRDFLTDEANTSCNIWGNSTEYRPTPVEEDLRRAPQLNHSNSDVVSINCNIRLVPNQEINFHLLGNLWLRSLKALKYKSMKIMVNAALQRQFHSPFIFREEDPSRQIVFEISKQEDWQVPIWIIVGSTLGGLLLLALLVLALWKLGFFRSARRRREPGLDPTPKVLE

T2: murine ITGA11 expressed in CHO cells (murine, UniProt P61622 23-1188)
T2 construct: whole, on cells; Only the alpha chain is named for these cells; also called mouse ITGA11; CHO cells expressing murine ITGA11
T2 sequence (looked up): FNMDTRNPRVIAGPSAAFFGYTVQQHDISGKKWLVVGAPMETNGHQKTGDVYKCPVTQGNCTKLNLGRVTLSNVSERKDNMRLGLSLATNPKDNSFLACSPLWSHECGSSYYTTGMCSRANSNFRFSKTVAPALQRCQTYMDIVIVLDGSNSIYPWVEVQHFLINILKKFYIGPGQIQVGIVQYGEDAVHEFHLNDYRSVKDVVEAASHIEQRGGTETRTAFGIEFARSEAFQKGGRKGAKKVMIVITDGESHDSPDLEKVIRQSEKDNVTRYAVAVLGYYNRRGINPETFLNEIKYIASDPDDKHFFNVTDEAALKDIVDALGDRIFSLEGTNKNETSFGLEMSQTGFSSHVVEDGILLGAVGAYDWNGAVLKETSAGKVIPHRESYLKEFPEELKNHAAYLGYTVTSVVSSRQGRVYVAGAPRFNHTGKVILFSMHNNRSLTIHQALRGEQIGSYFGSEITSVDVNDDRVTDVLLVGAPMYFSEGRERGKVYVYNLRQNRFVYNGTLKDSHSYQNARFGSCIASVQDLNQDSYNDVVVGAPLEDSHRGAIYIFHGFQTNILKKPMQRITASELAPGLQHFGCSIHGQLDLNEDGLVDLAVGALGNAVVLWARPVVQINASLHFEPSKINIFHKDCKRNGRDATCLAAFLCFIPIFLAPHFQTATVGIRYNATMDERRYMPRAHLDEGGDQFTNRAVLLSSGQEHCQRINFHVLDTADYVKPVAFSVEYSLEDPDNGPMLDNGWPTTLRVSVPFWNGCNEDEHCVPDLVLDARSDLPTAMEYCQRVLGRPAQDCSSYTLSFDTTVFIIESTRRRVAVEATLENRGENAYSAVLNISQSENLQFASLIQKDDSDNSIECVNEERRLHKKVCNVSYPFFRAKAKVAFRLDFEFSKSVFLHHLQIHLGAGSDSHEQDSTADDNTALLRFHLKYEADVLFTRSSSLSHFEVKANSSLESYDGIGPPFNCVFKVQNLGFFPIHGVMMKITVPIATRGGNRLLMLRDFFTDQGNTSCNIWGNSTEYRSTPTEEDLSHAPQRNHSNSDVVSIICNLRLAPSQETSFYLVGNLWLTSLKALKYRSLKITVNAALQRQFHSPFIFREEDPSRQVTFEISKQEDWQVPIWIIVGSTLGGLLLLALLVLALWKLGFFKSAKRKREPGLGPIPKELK

B1: mAb FIB-918-2 (antibody, human IgG4, V domains shown)
VH: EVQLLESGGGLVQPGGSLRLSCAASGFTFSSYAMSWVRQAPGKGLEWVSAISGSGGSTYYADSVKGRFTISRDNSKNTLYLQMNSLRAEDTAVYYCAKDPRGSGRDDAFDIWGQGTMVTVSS
VL: NIQMTQSPSSLSASVGDRVTITCRASQTIGSYLNWYQQKPGTAPKLLIYGASTSHTWVPSRFTGGGSGTEFTLTISSLQSEDFATYYCQQSYSTPFTFGGGTKLEIKR
B2: mAb FIB-918-3 (antibody, human IgG4, V domains shown)
VH: EVQLVESGGGLVQPGGSLRLSCAASGFTFSSYSMNWVRQAPGKGLEWVSYISSSSSTIYYADSVKGRFTISRDNAKNSLYLQMNSLRAEDTAVYYCARGPDLSDYFDYWGRGTLVTVSS
VL: not shown
B3: mAb FIB-918-10 (antibody, human IgG4, V domains shown)
VH: not shown
VL: AIQLTQSPSTLSASVGDRVTITCRASQGINDFLAWYQQKPGKAPKLLIYAASSLQSGVPSRFSGSGSGTDFTLTISSLQPEDFATYYCQQSYSTPLTFGGGTKVEIKR
B4: mAb FIB-918-6 (antibody, V domains shown)
VH: EVQLLESGGDLVKAGGSLRLSCAASGFTFSNAWMSWVRQAPGKGLEWVSGISGSGGSTYYADSVKGRFTISRDNSKNTLYLQMNSLRAEDTAVYYCARDRGYSYSETSNDAFDIWGRGTLVTVSS
VL: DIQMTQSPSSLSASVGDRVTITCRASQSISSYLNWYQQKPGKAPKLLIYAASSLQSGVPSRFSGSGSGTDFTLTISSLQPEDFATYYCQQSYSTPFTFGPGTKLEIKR
B5: mAb FIB-918-4 (antibody, human IgG4, V domains shown)
VH: QVQLVQSGAEVKKPGATVKISCKVSGYTFTDYYMHWVRQAPGKGLEWMGGFDPEDGETIYAQKFQGRVTMTEDTSTDTAYMELSSLRSEDTAVYYCATLDYRGVVYFDYWGQGTLVTVSS
VL: NFMLTQPHSVSDSPGKTVTISCTGSSGSIASNYVQWYQQRPGSAPTTVIYEDKRRPSGVPDRFIGSIDSSSNSASLTISGLRTEDEADYYCQSYDSSNHWVFGGGTQLTVLG
B6: mAb FIB-918-9 (antibody, V domains shown)
VH: EVQLVESGGGLVQPGGSLRLSCLASGFTFSDYWMAWVRQAPGKGLEWVSAISGSGGSTYYADSVKGRFTISRDNSKNTLYLQMNSLRAEDTAVYYCAKDLLWAARDAFDIWGQGTLVTVSS
VL: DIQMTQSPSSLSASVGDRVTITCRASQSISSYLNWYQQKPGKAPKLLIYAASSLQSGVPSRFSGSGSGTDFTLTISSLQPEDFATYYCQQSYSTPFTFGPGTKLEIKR
B7: mAb FIB-918-8 (antibody, V domains shown)
VH: EVQLVESGGGVVRPGGPLRLSCAASGFTFSNAWMSWVRQAPGKGLEWVSAISGSGGSTYYADSVKGRFTISRDNSKNTLYLQMNSLRAEDTAIYYCAKQTVTSADDYFDYWGQGTLVTVSS
VL: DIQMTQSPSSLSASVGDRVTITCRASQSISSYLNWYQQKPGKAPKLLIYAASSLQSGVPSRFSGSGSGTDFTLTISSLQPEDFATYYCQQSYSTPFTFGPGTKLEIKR
B8: mAb FIB-918-7 (antibody, human IgG4, V domains shown)
VH: EVQLVESGGGLVQPGGSLRLSCAASGFMFDTHAMSWVRQAPGKGLEWVSSISGSGGSIYYADSVKGRFTISRDNSKNTLYLQMNSLRAEDTAVYYCARSGETAGTDYFDYWGQGTLVTVSS
VL: EIVMTQSPATLSLSPGERATLSCRASQSVSSSYLSWYQQKPGQAPRLLIYGASTRATGIPARFSGSGSGTDFTLTISSLQPEDFAVYYCQQDYNSPYTFGQGTKVDIKR

The first assay addresses T1, human ITGA11 expressed in mouse C2C12 …. In words: flow cytometry, 34 nM antibody on C2C12 cells expressing human ITGA11. The method, then:
(§1) Antibody binding to C2C12 cells expressing human ITGA11 or CHO cells expressing murine ITGA11 was performed by incubating the cells with the antibodies at a concentration of 34 nM for 1 hour at 4° C. in binding medium (PBS, 10% normal goat serum, 2% rabbit serum, and 1% BSA). Cells were washed in binding medium and binding was detected using goat-anti-human Fc BV421 (Jackson ImmunoLabs). After washing the cells were resuspended in binding medium and binding was assessed by flow cytometry. 226 antibodies were screened and the binding characteristics of 10 antibodies are presented below. The results are provided in Table 2 and are expressed as mean fluorescence intensity (MFI).
Turning to B1, the MFI is 30400 MFI.

B2 had an MFI of 5220 MFI.

In turn, B3 showed an MFI of 10600 MFI.

In turn, B4 yielded an MFI of 7880 MFI.

Take B5: the MFI was 15700 MFI.

For the molecule B6, the MFI worked out at 1450 MFI.

Turning to B7, the MFI was found to be 41500 MFI.

For B8, the MFI worked out at 7870 MFI.

For another assay, the target named is T2, murine ITGA11 expressed in CHO cells. Kind of assay: flow cytometry, 34 nM antibody on CHO cells expressing murine ITGA11. The method, then: as §1
B1 came in with an MFI of 12600 MFI.

As for B2, the MFI amounted to 1520 MFI.

In the case of B3, the MFI was 8570 MFI.

With B4, the MFI worked out at 9410 MFI.

Molecule B5 showed an MFI of 4570 MFI.

For the molecule B6, the MFI was found to be 2030 MFI.

Consider B7, for which the MFI is 32900 MFI.

B8 registered an MFI of 21300 MFI.

The record behind these values is US20260159591A1 (FIBROCOR THERAPEUTICS, published 2026).
